Assay results taken from publication PMC11417369, “DNA sequence and chromatin differentiate sequence-specific transcription factor binding in the human malaria parasite Plasmodium falciparum”.

Tests used:
AP2-LT D1 = biological target: T1, AP2-LT D1 (Plasmodium falciparum, UniProt Q8IAM1 2520-2577); test: gcPBM; about 25 ug protein; PBS, 1% milk, 0.2 mg/ml BSA, salmon testes DNA, 0.03% Triton X-100; conditions: tags: N-terminal GST (pGEX-4T-1), kept; label: surface-attached array probe
T1 sequence: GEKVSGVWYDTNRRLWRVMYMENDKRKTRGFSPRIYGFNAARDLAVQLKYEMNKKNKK

PF3D7_0420300 D1 = biological target: T2, PF3D7_0420300 D1 (Plasmodium falciparum, UniProt Q8I1N6 1956-2015); test: as above; conditions: tags: N-terminal GST (pGEX-4T-1), kept; label: surface-attached array probe
T2 sequence: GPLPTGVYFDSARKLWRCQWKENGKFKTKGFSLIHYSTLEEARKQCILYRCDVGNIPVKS

AP2-HC D1 = biological target: T3, AP2-HC D1 (Plasmodium falciparum, UniProt Q8IKR9 1316-1374); test: as above; conditions: tags: N-terminal GST (pGEX-4T-1), kept; label: surface-attached array probe
T3 sequence: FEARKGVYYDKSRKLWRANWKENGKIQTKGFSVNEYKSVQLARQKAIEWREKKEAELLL

AP2-I_D3 (AP2 domain 3) = biological target: T4, AP2-I_D3 (AP2 domain 3) (UniProt Q8IJW6 775-824); test: EMSA; EMSA: 1x binding buffer (listed as 100 mM Tris-HCl pH 7.5, 500 mM KCl, 10 mM DTT), 5 mM MgCl2, 25 ng/ul poly dI-dC, 0.05% NP-40, protein in 25% glycerol, 20 min room temperature, 6% PAGE 0.5x TBE; conditions: protein: recombinant; tags: N-terminal GST; label: biotin; blunt
T4 chain: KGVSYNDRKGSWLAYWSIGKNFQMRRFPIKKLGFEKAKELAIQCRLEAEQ

HDP1 homeodomain-like = biological target: T5, HDP1 homeodomain-like (Plasmodium falciparum, UniProt Q8IKH4 2990-3078); test: gcPBM; about 25 ug protein; PBS, 1% milk, 0.2 mg/ml BSA, salmon testes DNA, 0.03% Triton X-100; conditions: tags: N-terminal GST (pGEX-4T-1), kept; chain copies: 2; label: surface-attached array probe
T5 sequence: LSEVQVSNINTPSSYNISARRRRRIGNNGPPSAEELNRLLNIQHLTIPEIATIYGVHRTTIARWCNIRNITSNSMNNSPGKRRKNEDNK

AP2-HC AP2 DBD = biological target: T6, AP2-HC AP2 DBD (UniProt Q8IKR9 1320-1370); test: EMSA; 1:1 stoichiometry; EMSA: 1x binding buffer (listed as 100 mM Tris-HCl pH 7.5, 500 mM KCl, 10 mM DTT), 5 mM MgCl2, 25 ng/ul poly dI-dC, 0.05% NP-40, protein in 25% glycerol, 20 min room temperature, 6% PAGE 0.5x TBE; conditions: protein: recombinant; tags: N-terminal GST; label: biotin; blunt
T6 sequence: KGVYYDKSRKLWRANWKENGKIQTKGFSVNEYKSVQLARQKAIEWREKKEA

| Binder | binding signal (AP2-LT D1) | binding signal (PF3D7_0420300 D1) | binding signal (AP2-HC D1) | binding result (AP2-I_D3 (AP2 domain 3)) | binding signal (HDP1 homeodomain-like) | binding result (AP2-HC AP2 DBD) |
| --- | --- | --- | --- | --- | --- | --- |
| CACACA_site7633 (dsDNA) DNA 1: TGGGAATAACGACACACACACACACGGATATAAATA DNA 2: TATTTATATCCGTGTGTGTGTGTGTCGTTATTCCCA | 10.7 ln median PBM intensity, better of two orientations | 10.4 ln median PBM intensity, better of two orientations | 11.9 ln median PBM intensity, better of two orientations |  |  |  |
| GTGCAC_site10341 (dsDNA) DNA 1: GATAAAATGAGACCAGTGCATTATTAGTTGTACACC DNA 2: GGTGTACAACTAATAATGCACTGGTCTCATTTTATC |  |  |  | binds | 9.81 ln median PBM intensity, better of two orientations |  |
| CACACA_site7148 (dsDNA) DNA 1: CATATTCCCCCCCACACACACACACGCATACATACC DNA 2: GGTATGTATGCGTGTGTGTGTGTGGGGGGGAATATG | 11 ln median PBM intensity, better of two orientations | 11 ln median PBM intensity, better of two orientations |  |  |  | binds |
| CACACA_site7194 (dsDNA) DNA 1: CAAACAAACGAACACACACACACACGCAAAAATGAT DNA 2: ATCATTTTTGCGTGTGTGTGTGTGTTCGTTTGTTTG | 10.8 ln median PBM intensity, better of two orientations | 10.4 ln median PBM intensity, better of two orientations | 11.8 ln median PBM intensity, better of two orientations |  |  |  |
| CACACA_site8010 (dsDNA) DNA 1: CACCCCCACAGACACACACACACACCGATATATATA DNA 2: TATATATATCGGTGTGTGTGTGTGTCTGTGGGGGTG | 10.8 ln median PBM intensity, better of two orientations | 10.5 ln median PBM intensity, better of two orientations | 11.8 ln median PBM intensity, better of two orientations |  |  |  |
| CACACA_site2428 (dsDNA) DNA 1: TACACAAACAAACACACACACACACCCCCACAAAAA DNA 2: TTTTTGTGGGGGTGTGTGTGTGTGTTTGTTTGTGTA | 10.7 ln median PBM intensity, better of two orientations | 10.5 ln median PBM intensity, better of two orientations | 12.1 ln median PBM intensity, better of two orientations |  |  |  |
